The results in this text go back to PMC11109247.

Test [1] has as its target T1, sF ectodomain (Nipah henipavirus), Q9IH63.
T1 chain: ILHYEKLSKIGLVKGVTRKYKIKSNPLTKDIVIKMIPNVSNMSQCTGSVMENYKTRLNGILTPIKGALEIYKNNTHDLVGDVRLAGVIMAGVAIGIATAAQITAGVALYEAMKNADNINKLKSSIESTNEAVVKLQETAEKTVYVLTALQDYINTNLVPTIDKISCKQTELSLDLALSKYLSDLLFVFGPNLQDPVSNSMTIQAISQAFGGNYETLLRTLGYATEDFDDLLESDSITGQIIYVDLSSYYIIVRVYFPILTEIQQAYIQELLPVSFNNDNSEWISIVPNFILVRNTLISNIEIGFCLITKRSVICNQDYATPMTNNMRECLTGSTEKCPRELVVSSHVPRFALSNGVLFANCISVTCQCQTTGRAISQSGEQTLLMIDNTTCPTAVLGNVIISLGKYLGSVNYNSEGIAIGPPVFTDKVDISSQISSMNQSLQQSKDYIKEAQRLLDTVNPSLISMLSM
As to the kind of experiment: BLI. The following applies: modification not given.

Test [2] concerns the target T1, sF ectodomain (Nipah henipavirus), …. As to the kind of experiment: MST. The following applies: modification not given.

B1: P-59 peptide peptide P-59, Q9IH62 (peptide)
chain: HECNISCPNPLPFREYRPQTEGV
For the molecule B1, the dissociation constant Kd (in general, the constant that tells how readily two partners part at equilibrium) came out at 190 nM in test [1] and 5000 nM in test [2].
